# T1: FcγRIIa R (human, UniProt P12318 34-217)
# T1 construct: extracellular domain; also called FcgRIIa R type; 2aR
# T1 sequence (looked up): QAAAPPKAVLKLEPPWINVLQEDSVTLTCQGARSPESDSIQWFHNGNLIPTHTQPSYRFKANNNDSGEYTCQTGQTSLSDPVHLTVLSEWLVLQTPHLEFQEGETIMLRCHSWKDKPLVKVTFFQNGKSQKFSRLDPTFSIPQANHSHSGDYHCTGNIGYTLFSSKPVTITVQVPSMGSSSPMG
# T2: FcγRIIb (human, UniProt P31994 43-217)
# T2 construct: extracellular domain; also called FcgRIIb; 2b
# T2 sequence (looked up): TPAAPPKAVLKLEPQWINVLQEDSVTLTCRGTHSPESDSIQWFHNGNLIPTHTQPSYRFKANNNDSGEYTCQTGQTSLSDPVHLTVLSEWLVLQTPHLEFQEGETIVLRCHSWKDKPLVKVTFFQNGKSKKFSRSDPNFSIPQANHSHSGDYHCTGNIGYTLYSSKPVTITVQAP
# B1: GpH7-A5/GpH7-B3 variant E269_01G/GpL16-k0 (antibody, human IgG1, kappa)
# heavy 1: not shown
# heavy 2: not shown
# light: DIVMTQSPLSLPVTPGEPASISCQASESLVHSNRNTYLHWYLQKPGQSPQLLIYKVSNRFSGVPDRFSGSGSGTDFTLKISRVEAEDVGVYYCSQNTHVPPTFGQGTKVEIERTVAAPSVFIFPPSDEQLKSGTASVVCLLNNFYPREAKVQWKVDNALQSGNSQESVTEQDSKDSTYSLSSTLTLSKADYEKHKVYACEVTHQGLSSPVTKSFNRGEC
# notes: heterodimerized antibody, mutation in the GpH7-B3 chain only; also called He Ab
# B2: GpH7-A5/GpH7-B3 variant D265_10E/GpL16-k0 (antibody, human IgG1, kappa)
# heavy 1: not shown
# heavy 2: not shown
# light: B1 light
# notes: as for B1
# B3: GpH7-A5/GpH7-B3 variant D265_11K/GpL16-k0 (antibody, human IgG1, kappa)
# heavy 1: not shown
# heavy 2: not shown
# light: B1 light
# notes: as for B1
# B4: GpH7-A5/GpH7-B3 variant D265_12R/GpL16-k0 (antibody, human IgG1, kappa)
# heavy 1: not shown
# heavy 2: not shown
# light: B1 light
# notes: as for B1
# B5: GpH7-A5/GpH7-B3 variant D265_13S/GpL16-k0 (antibody, human IgG1, kappa)
# heavy 1: not shown
# heavy 2: not shown
# light: B1 light
# notes: as for B1
# B6: GpH7-A5/GpH7-B3 variant D265_14T/GpL16-k0 (antibody, human IgG1, kappa)
# heavy 1: not shown
# heavy 2: not shown
# light: B1 light
# notes: as for B1
# B7: GpH7-A5/GpH7-B3 variant D265_16H/GpL16-k0 (antibody, human IgG1, kappa)
# heavy 1: not shown
# heavy 2: not shown
# light: B1 light
# notes: as for B1
# B8: GpH7-A5/GpH7-B3 variant D265_18N/GpL16-k0 (antibody, human IgG1, kappa)
# heavy 1: not shown
# heavy 2: not shown
# light: B1 light
# notes: as for B1
# B9: GpH7-A5/GpH7-B3 variant D265_19Q/GpL16-k0 (antibody, human IgG1, kappa)
# heavy 1: not shown
# heavy 2: not shown
# light: B1 light
# notes: as for B1
# B10: GpH7-A5/GpH7-B3 variant E269_02A/GpL16-k0 (antibody, human IgG1, kappa)
# heavy 1: not shown
# heavy 2: not shown
# light: B1 light
# notes: as for B1
# B11: GpH7-A5/GpH7-B3 variant E269_03V/GpL16-k0 (antibody, human IgG1, kappa)
# heavy 1: not shown
# heavy 2: not shown
# light: B1 light
# notes: as for B1
# B12: GpH7-A5/GpH7-B3 variant E269_04F/GpL16-k0 (antibody, human IgG1, kappa)
# heavy 1: not shown
# heavy 2: not shown
# light: B1 light
# notes: as for B1
# B13: GpH7-A5/GpH7-B3 variant E269_06M/GpL16-k0 (antibody, human IgG1, kappa)
# heavy 1: not shown
# heavy 2: not shown
# light: B1 light
# notes: as for B1
# B14: GpH7-A5/GpH7-B3 variant E269_07I/GpL16-k0 (antibody, human IgG1, kappa)
# heavy 1: not shown
# heavy 2: not shown
# light: B1 light
# notes: as for B1
# B15: GpH7-A5/GpH7-B3 variant E269_08L/GpL16-k0 (antibody, human IgG1, kappa)
# heavy 1: not shown
# heavy 2: not shown
# light: B1 light
# notes: as for B1
# B16: GpH7-A5/GpH7-B3 variant E269_11K/GpL16-k0 (antibody, human IgG1, kappa)
# heavy 1: not shown
# heavy 2: not shown
# light: B1 light
# notes: as for B1
# B17: GpH7-A5/GpH7-B3 variant E269_12R/GpL16-k0 (antibody, human IgG1, kappa)
# heavy 1: not shown
# heavy 2: not shown
# light: B1 light
# notes: as for B1
# B18: GpH7-A5/GpH7-B3 variant E269_13S/GpL16-k0 (antibody, human IgG1, kappa)
# heavy 1: not shown
# heavy 2: not shown
# light: B1 light
# notes: as for B1
# B19: GpH7-A5/GpH7-B3 variant E269_14T/GpL16-k0 (antibody, human IgG1, kappa)
# heavy 1: not shown
# heavy 2: not shown
# light: B1 light
# notes: as for B1
# B20: GpH7-A5/GpH7-B3 variant E269_15Y/GpL16-k0 (antibody, human IgG1, kappa)
# heavy 1: not shown
# heavy 2: not shown
# light: B1 light
# notes: as for B1
# Target: T1, FcγRIIa R
# Test: SPR; He/Con_2aR divided by He/Con_2b (FcγRIIb as reference)
# Protocol: (§1) The heterodimerized antibodies He Abs in which one of the H chains was introduced with an alteration were assayed for their binding activities to each activating FcγR and inhibitory FcγR according to the method described in Example 4. […] The activating FcγRs in FIGS. 26, 27, 28, and 29 are FcγRIa, FcγRIIa (R), FcγRIIa (H), and FcγRIIIa, respectively.
# (§2) Analysis of interaction between objective antibody and the FcγR was carried out using Biacore T100 (GE Healthcare). HBS-EP+ (GE Healthcare) was used as the running buffer, and the measurement temperature was set to 25° C. Chips produced by immobilizing the antigen peptide by the amine coupling method to a Series S Sencor Chip CM5 (GE Healthcare), or alternatively, chips produced by allowing preliminarily biotinylated antigen peptides to interact with and immobilize onto a Series S Sensor Chip SA (certified) (GE Healthcare) were used. Antibodies of interest were captured onto an antigen peptide-immobilized chip, and allowed to interact to each FcγR diluted with running buffer. To regenerate and repeatedly use the chip, the antibodies captured on the chip were washed off by reacting 10 mM glycine-HCl, pH 1.5.
row,Binder,IIaR/IIb (He_2aR/2b)
1,B1,1.27 ratio
2,B2,1.52 ratio
3,B3,2.26 ratio
4,B4,2.15 ratio
5,B5,1.81 ratio
6,B6,1.61 ratio
7,B7,1.51 ratio
8,B8,2.02 ratio
9,B9,1.64 ratio
10,B10,1.31 ratio
11,B11,1.3 ratio
12,B12,1.29 ratio
13,B13,1.32 ratio
14,B14,1.34 ratio
15,B15,1.33 ratio
16,B16,2.14 ratio
17,B17,1.39 ratio
18,B18,1.28 ratio
19,B19,1.3 ratio
20,B20,1.29 ratio

# Target: T1, FcγRIIa R
# Test: SPR (Biacore), antibody captured, FcγR as analyte; relative binding
# Protocol: as §1, §2
row,Binder,He/Con_2aR (IIaR binding)
1,B1,65.3 % of GpH7-A5/GpH7-B3/GpL16-k0 (=100)
2,B2,58.2 % of GpH7-A5/GpH7-B3/GpL16-k0 (=100)
3,B3,33.7 % of GpH7-A5/GpH7-B3/GpL16-k0 (=100)
4,B4,32.2 % of GpH7-A5/GpH7-B3/GpL16-k0 (=100)
5,B5,20.5 % of GpH7-A5/GpH7-B3/GpL16-k0 (=100)
6,B6,25.8 % of GpH7-A5/GpH7-B3/GpL16-k0 (=100)
7,B7,58 % of GpH7-A5/GpH7-B3/GpL16-k0 (=100)
8,B8,12.4 % of GpH7-A5/GpH7-B3/GpL16-k0 (=100)
9,B9,54.8 % of GpH7-A5/GpH7-B3/GpL16-k0 (=100)
10,B10,65.3 % of GpH7-A5/GpH7-B3/GpL16-k0 (=100)
11,B11,58.8 % of GpH7-A5/GpH7-B3/GpL16-k0 (=100)
12,B12,58.2 % of GpH7-A5/GpH7-B3/GpL16-k0 (=100)
13,B13,61.7 % of GpH7-A5/GpH7-B3/GpL16-k0 (=100)
14,B14,58.8 % of GpH7-A5/GpH7-B3/GpL16-k0 (=100)
15,B15,57.2 % of GpH7-A5/GpH7-B3/GpL16-k0 (=100)
16,B16,38.1 % of GpH7-A5/GpH7-B3/GpL16-k0 (=100)
17,B17,35 % of GpH7-A5/GpH7-B3/GpL16-k0 (=100)
18,B18,61.2 % of GpH7-A5/GpH7-B3/GpL16-k0 (=100)
19,B19,66 % of GpH7-A5/GpH7-B3/GpL16-k0 (=100)
20,B20,57.6 % of GpH7-A5/GpH7-B3/GpL16-k0 (=100)

# Target: T2, FcγRIIb
# Test: as above
# Protocol: as §1, §2
row,Binder,He/Con_2b (IIb binding)
1,B1,51.5 % of GpH7-A5/GpH7-B3/GpL16-k0 (=100)
2,B2,38.2 % of GpH7-A5/GpH7-B3/GpL16-k0 (=100)
3,B3,14.9 % of GpH7-A5/GpH7-B3/GpL16-k0 (=100)
4,B4,15 % of GpH7-A5/GpH7-B3/GpL16-k0 (=100)
5,B5,11.3 % of GpH7-A5/GpH7-B3/GpL16-k0 (=100)
6,B6,16 % of GpH7-A5/GpH7-B3/GpL16-k0 (=100)
7,B7,38.3 % of GpH7-A5/GpH7-B3/GpL16-k0 (=100)
8,B8,6.1 % of GpH7-A5/GpH7-B3/GpL16-k0 (=100)
9,B9,33.4 % of GpH7-A5/GpH7-B3/GpL16-k0 (=100)
10,B10,49.9 % of GpH7-A5/GpH7-B3/GpL16-k0 (=100)
11,B11,45.1 % of GpH7-A5/GpH7-B3/GpL16-k0 (=100)
12,B12,45 % of GpH7-A5/GpH7-B3/GpL16-k0 (=100)
13,B13,46.7 % of GpH7-A5/GpH7-B3/GpL16-k0 (=100)
14,B14,43.9 % of GpH7-A5/GpH7-B3/GpL16-k0 (=100)
15,B15,42.9 % of GpH7-A5/GpH7-B3/GpL16-k0 (=100)
16,B16,17.8 % of GpH7-A5/GpH7-B3/GpL16-k0 (=100)
17,B17,25.2 % of GpH7-A5/GpH7-B3/GpL16-k0 (=100)
18,B18,47.8 % of GpH7-A5/GpH7-B3/GpL16-k0 (=100)
19,B19,50.6 % of GpH7-A5/GpH7-B3/GpL16-k0 (=100)
20,B20,44.7 % of GpH7-A5/GpH7-B3/GpL16-k0 (=100)

# Reference: patent US20180155451A1 (published 2018)
